B1: Hairpin Ribozyme (parent)
chain: GUCCUCUUUCACGUGCGCGUGAAAGAGAGAAGUGAACCAGAGAAACACACGUUGUGGUAUAUUACCUGGUA

Variants of: B1
Test: self-cleavage, relative activity (ratio to wild type); higher = more cleavage; co-transcriptional
C18A A39G gave a self-cleavage of 0.395. A36G U58A gave a self-cleavage of 0.836. In the case of C12A G19C, the self-cleavage is reported as 0.944. In the case of G13C G42A, the self-cleavage is reported as 0.208. Work on G19A C46G yielded a self-cleavage of 0.176. With G21U G69U the self-cleavage was 0.211. With G32A A71C the self-cleavage was 0.15. C48U A49U showed a self-cleavage of 0.208. A22G C38G showed a self-cleavage of 0.185. G29A G54A gave a self-cleavage of 0.141. Variant U70C A71C has a self-cleavage of 1.79. For A47G U55C, the self-cleavage was 0.207. In the case of C3G U67G, the self-cleavage is reported as 0.102. C37A G56U showed a self-cleavage of 0.189. U14A A36G showed a self-cleavage of 0.864. In the case of C38G G54U, the self-cleavage is reported as 0.0948. In the case of G17C U58A, the self-cleavage is reported as 0.453. Work on A44C A47U yielded a self-cleavage of 0.135. Variant U63C G68A has a self-cleavage of 0.192. With G32C C38G the self-cleavage was 0.0953. For G29U U53A, the self-cleavage was 0.103. Variant U2A U62A has a self-cleavage of 0.194. With G1C A11C the self-cleavage was 0.0386. In the case of G54A A59G, the self-cleavage is reported as 0.17. A11U G34A gave a self-cleavage of 1.13. Variant C3U G25U has a self-cleavage of 0.187. Work on C12U A26U yielded a self-cleavage of 0.591. U14A G42U gave a self-cleavage of 0.308. Variant G17A C46G has a self-cleavage of 0.211. A24C G27A gave a self-cleavage of 0.341. With C38G U63G the self-cleavage was 0.231. With C10G G54U the self-cleavage was 0.471. For G29U G40A, the self-cleavage was 0.121. Work on G21C A64G yielded a self-cleavage of 0.564. With G32C A44G the self-cleavage was 0.137. A22G A71C gave a self-cleavage of 1.28. G15A G27A showed a self-cleavage of 0.541. U7C C65A gave a self-cleavage of 0.684. For A61U C65U, the self-cleavage was 0.188. Work on U53A A59C yielded a self-cleavage of 0.0694. Variant A30C A59G has a self-cleavage of 0.0647. C37A U63G showed a self-cleavage of 0.131. Work on C12U A41U yielded a self-cleavage of 0.928. For A47U A49U, the self-cleavage was 0.149. Work on G32A U52C yielded a self-cleavage of 0.101. In the case of G54C U62A, the self-cleavage is reported as 0.186. For G42A C46A, the self-cleavage was 0.152. In the case of C18A A45C, the self-cleavage is reported as 0.173. A11U G19A gave a self-cleavage of 0.79. In the case of G13A C65A, the self-cleavage is reported as 0.743. In the case of U14A A43C, the self-cleavage is reported as 0.15. With C38G A47U the self-cleavage was 0.171. C4U C10U gave a self-cleavage of 0.224. Variant A11G A26U has a self-cleavage of 0.645. For A43U U53A, the self-cleavage was 0.206. A28U A31C gave a self-cleavage of 0.251. Variant U70A has a self-cleavage of 0.926. G27U G42U showed a self-cleavage of 0.188. In the case of A43C U62A, the self-cleavage is reported as 0.12. Work on G17A U53A yielded a self-cleavage of 1.36. Work on A22U A45U yielded a self-cleavage of 0.143. C16A G68A gave a self-cleavage of 0.305. U33C A49U gave a self-cleavage of 0.127. Work on G19C G40A yielded a self-cleavage of 0.343. C4U A36C gave a self-cleavage of 0.145. With G34U C46A the self-cleavage was 0.239. In the case of G29A C65G, the self-cleavage is reported as 0.158. With U5A A22G the self-cleavage was 0.308. A49G U70A gave a self-cleavage of 0.377. C18G U63A gave a self-cleavage of 0.147. For G27A G69U, the self-cleavage was 0.182. C16A C37U gave a self-cleavage of 0.519. With U7A G27A the self-cleavage was 0.27. In the case of U63C G69A, the self-cleavage is reported as 0.216. C3G A45U gave a self-cleavage of 0.122. Variant G21U G51U has a self-cleavage of 0.992. With A31U A39C the self-cleavage was 0.0658. For U5G A59C, the self-cleavage was 0.13. In the case of C4A G40C, the self-cleavage is reported as 0.0835. U5C C6A showed a self-cleavage of 0.393. U8A A45G gave a self-cleavage of 0.193. Work on C12A G21U yielded a self-cleavage of 0.752. Variant C6A A30U has a self-cleavage of 0.0998. U33A A35U gave a self-cleavage of 0.131. With A24G A49U the self-cleavage was 0.124. Variant C16G C38A has a self-cleavage of 0.154. Variant C37U C50G has a self-cleavage of 0.226. With A22U A41G the self-cleavage was 0.776. Work on U14C U67G yielded a self-cleavage of 0.344. With C3A C16A the self-cleavage was 0.677. For U20G C46U, the self-cleavage was 0.0821. For C6U G40U, the self-cleavage was 0.166. Variant A11C U58A has a self-cleavage of 0.635. For U2C U20A, the self-cleavage was 0.25. C3A G40U showed a self-cleavage of 0.194. For C6U U62G, the self-cleavage was 0.102. A23U A45U gave a self-cleavage of 0.2. With G17U U62A the self-cleavage was 0.198. For U2A C16U, the self-cleavage was 0.259. In the case of U2C A71G, the self-cleavage is reported as 0.125. In the case of G56A A61U, the self-cleavage is reported as 0.166. Variant C38A G51U has a self-cleavage of 0.195. Work on U9A G56U yielded a self-cleavage of 0.178. With U33C C50U the self-cleavage was 0.0772. For U2G U5A, the self-cleavage was 0.288. A30C A61U showed a self-cleavage of 0.097. Work on U52A U60G yielded a self-cleavage of 0.54. G32U G40C gave a self-cleavage of 0.0975. C4U G17C showed a self-cleavage of 0.266. Work on G54A C65G yielded a self-cleavage of 0.107. U5C U8C gave a self-cleavage of 0.313. With U2C A45G the self-cleavage was 0.0514. A36U A43C gave a self-cleavage of 0.0574. G25A G51A showed a self-cleavage of 0.586. For U5G G13U, the self-cleavage was 0.361. U2G A45G gave a self-cleavage of 0.118. A26U U70C gave a self-cleavage of 0.721. Variant C3A C46A has a self-cleavage of 0.219. With C18G U53A the self-cleavage was 1.02. U7C A24C gave a self-cleavage of 1.04. Work on A11U A22G yielded a self-cleavage of 0.755. U53A U60A gave a self-cleavage of 1.08. For A45G A61U, the self-cleavage was 0.0962. C38G G40U showed a self-cleavage of 0.169. For G32A G57A, the self-cleavage was 0.0905. Variant G32A G56C has a self-cleavage of 0.0365. Variant G17A C37A has a self-cleavage of 0.251. C16U A35C gave a self-cleavage of 1.39. With A61C G69A the self-cleavage was 0.159. For U52G G57C, the self-cleavage was 0.216. Work on G34A U63A yielded a self-cleavage of 0.259. In the case of U2G U67G, the self-cleavage is reported as 0.194. For U55G U70G, the self-cleavage was 0.17. In the case of C38G U70G, the self-cleavage is reported as 0.216. In the case of A11C A22U, the self-cleavage is reported as 0.554. Variant C6A A23U has a self-cleavage of 0.503. For A35C G40A, the self-cleavage was 0.208. Variant C38G U55A has a self-cleavage of 0.288. For U14G C18A, the self-cleavage was 0.941. A30U G42U showed a self-cleavage of 0.119. Variant U20G G34U has a self-cleavage of 1.5. In the case of C46A C50U, the self-cleavage is reported as 0.111. In the case of U5G G17U, the self-cleavage is reported as 0.177. U5C G68A gave a self-cleavage of 0.14. A43U U52G gave a self-cleavage of 0.139. A11G G57A showed a self-cleavage of 0.159. With U70A A71C the self-cleavage was 1.21. Work on G1U U7C yielded a self-cleavage of 0.0995. For A11U A61G, the self-cleavage was 0.176. U9C A36C showed a self-cleavage of 0.491. With C6G A44G the self-cleavage was 0.134. In the case of A24U A28U, the self-cleavage is reported as 0.521. G25C U63C gave a self-cleavage of 0.204. Work on G32U G42A yielded a self-cleavage of 0.153. With G27C C50U the self-cleavage was 0.0886. Variant G42A U63C has a self-cleavage of 0.113. Variant A22U U62C has a self-cleavage of 0.127. A24U G32C gave a self-cleavage of 0.114. C46U G51C gave a self-cleavage of 0.176. Variant C18U U33A has a self-cleavage of 0.242. For U55A G57A, the self-cleavage was 0.148. With A41U G68U the self-cleavage was 0.423. C3G A71G showed a self-cleavage of 0.308. Variant G56A A59U has a self-cleavage of 0.125. For C4U G27A, the self-cleavage was 0.722. G40C U52G gave a self-cleavage of 0.064. Work on A22U G68U yielded a self-cleavage of 0.188.

— the RNAGym collection of RNA variant scans (doi:10.7554/elife.80360)
